According to patent US20130261013A1 (MODPRO, published 2013):
Ends that are not written are not given here. * marks the point of attachment. PP1 = 3,5-bis[[bis(2-pyridylmethyl)amino]methyl]benzoic acid, O=C(c1cc(CN(Cc2ccccn2)Cc2ccccn2)cc(CN(Cc2ccccn2)Cc2ccccn2)c1)*; X2 = 7‑methoxycoumarin‑3‑carboxylic acid, COc1ccc2cc(C(=O)*)c(=O)oc2c1

T1: α-casein (UniProt P02662 16-214, between 8 and 13 phosphate groups, at serine side chains)
T1 construct: Commercial α-casein is a mixture of subtypes; also called a-casein
T1 sequence (looked up): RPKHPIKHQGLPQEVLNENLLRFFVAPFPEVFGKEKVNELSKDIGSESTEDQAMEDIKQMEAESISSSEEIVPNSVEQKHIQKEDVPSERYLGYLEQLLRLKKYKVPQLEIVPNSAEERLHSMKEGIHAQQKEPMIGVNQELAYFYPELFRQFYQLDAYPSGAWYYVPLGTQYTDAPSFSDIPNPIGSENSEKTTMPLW


Assays:
[1] = molecular target: T1, α-casein; experiment: fluorescence titration, 100 nM fluorescein labelled binder, α-casein 1 nM to 10 µM, 1:1 model
Procedure: (§1) For a more accurate determination of the dissociation constant, titration with protein at a binder concentration of 100 nM in 10 mM HEPES buffer and 150 mM NaCl at pH 7.2 was carried out (FIG. 12). At this concentration a more strongly emitting probe was required and fluorescein was attached to the side chain of Cys-24 by reacting the maleimide group with the free thiol of the polypeptide after removal of the acetamidomethyl (Acm) protection group. The binder concentration was kept constant at 100 nM and a series of samples were prepared where only the concentration of α-casein was varied.
(§2) A series of solutions were prepared. […] All solutions were prepared in HEPES buffer (pH=7.2, 10 mM HEPES, 150 mM NaCl).

[2] = molecular target: T1, α-casein; experiment: fluorescence titration, binder fixed at 100 nM, concentration of total α-casein varied [upper panel, [a-casein]tot]
Procedure: as §1, §2

[3] = molecular target: T1, α-casein; experiment: fluorescence titration, binder fixed at 100 nM, plotted against the free concentration of α-casein [lower panel, [a-casein]free]
Procedure: as §1

[4] = molecular target: T1, α-casein; experiment: three-step fluorescence titration, 500 nM binder; rough estimate
Procedure: In a preliminary and simple assay executable in microtitre plate format, each of the eight binder candidates at a concentration of 500 nM in 10 mM HEPES buffer and 150 mM NaCl at pH 7.2, equipped with the fluorophor 7-methoxycoumarin-3-carboxylic acid, were titrated with α-casein in three steps (FIG. 8). Concentrations of peptides were determined from the absorbance of the coumarine probe and stock solutions at concentrations of 5 μM were prepared from which aliqiuots were transferred to the microtitre plate. […] Saturation within experimental error at those concentrations is compatible with low nM affinity and tight binding.
In contrast, the differences in relative responses to increased concentrations of α-casein are related to differences in affinity. […] Nevertheless, it is a quick and informative experiment. From the fluorescence titrations the 4-series of binder candidates was estimated to have dissociation constants of around 5 nM or lower. […] It is concluded that the 3-series binders have dissociation constants in the high nM to the μM range. The nearly identical affinities within the 3-series and within the 4-series is probably fortuitous.

Row | Binder | Kd [1] [nM] | EC50 (read off the curve) [2] [nM] | EC50 (read off the curve) [3] [nM] | Kd [4] [nM]
1 | NAADLEAK(PP1)IRHLREKLAARGPRDC(fluorescein maleimide)AQLAEQLARRFERFARAG-NH2 (designed binder, not fully specified (N-terminus); also: PP1 chelating two Zn2+, group on Lys15 not given here) [4-C15L8-PP1* (fluorescein on Cys-24)] | 17 | ~70 | ~20 | 
2 | NAADLEARIRHLRERLAARGPK(PP1)DCK(X2)QLAEQLARAFERFARAG-NH2 (designed binder, not fully specified (residue 24, N-terminus); also: two Zn2+ chelated by PP1, Named only as a member of the 4-series) [4-C25L22-PP1 (coumarin form, with Zn2+)] |  |  |  | ≤ 5
